From patent US20260224676A1 (published 2026)

Target: Tau preformed fibrils (PFF) (UniProt P10636 2-758)
Assay: BLI

B1: Bepranemab (antibody, V domains shown)
VH: EVQLQESGPGLVKPSETLSLTCTVSGFSLTSNDIAWIRQPPGKGLEWMGTIWTDGSTNYNTAVQSRVTISVDTSKNQFSLKLSSVTAADTAVYYCARHRLYYGAFDYWGQGTMVTVSS
VL: DIVMTQTPLSLSVTPGQPASISCRSSQSLEYSDGYTYLEWYLQKPGQSPQLLIYEVSNRFSGVPDRFSGSGSGTDFTLKISRVEAEDVGVYYCFQATHNPYTFGQGTKLEIK
Kd: 1.32 nM
